The text below walks through data of patent US20220332816A1 (SINGLE CELL TECHNOLOGY, published 2022).

Residue numbers refer to the chain shown, from its start.

Sequences and labels used below:
T1: Recombinant human TIGIT (human, UniProt Q495A1 22-141, limits assumed)
T1 construct: also called T cell immunoreceptor with Ig and ITIM domains
T1 sequence: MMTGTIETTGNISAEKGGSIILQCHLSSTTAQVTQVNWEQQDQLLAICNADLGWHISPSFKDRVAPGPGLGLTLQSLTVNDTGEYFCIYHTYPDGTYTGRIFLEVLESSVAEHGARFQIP

T2: TIGIT on the engineered cell lines of the TIGIT/CD155 Blockade Bioassay (J2201, Promega) (UniProt Q495A1 22-244, limits assumed)
T2 sequence (looked up): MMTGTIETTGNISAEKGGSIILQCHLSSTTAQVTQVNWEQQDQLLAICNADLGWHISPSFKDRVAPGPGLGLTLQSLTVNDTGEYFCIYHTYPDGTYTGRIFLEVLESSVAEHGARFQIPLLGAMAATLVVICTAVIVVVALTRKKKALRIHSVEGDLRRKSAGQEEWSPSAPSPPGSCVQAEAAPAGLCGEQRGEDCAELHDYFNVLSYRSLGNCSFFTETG

B1: SCT-Ga487 (antibody, V domains shown)
VH: QVQLQQPGAELVKPGASVKMSCKATGYTFSNYWIEWVKQTPGRGLEWIGEILPGSGSSYYNQKFKGKATLTADKSSSTAYMQLSSLTSEDSAVYYCARQKYGNFYYFDFWGAGTTVTVSA
VL: AIQMTQSPSSLSASVGDRVTITCRASQGIGNYLNWYQQKPGKAPKLLIYYTSSLHSGVPSRFSGSGSGTDYTFTISSLQPEDIATYYCHQYSKLPYTFGQGTKVEIK
B2: SCT-Ga461 (antibody, V domains shown)
VH: EVQLVESGGGLVQPGGSLRLSCAASGFTFSSYTMSWVRQAPGKGLEWVATISSGGSYTYYPDSVKGRFTISRDNAKNTLYLQMNSLRAEDTAVYYCTRWLLSLYAMDYWGQGTLVTVSS
VL: AIQMTQSPSSLSASVGDRVTITCQASQNINVWLSWYQQKPGKAPKLLIYKASTLASGVPSRFSGSGSGTDFTLTISSLQPDDFATYYCQQGQTYPFTFGGGTKVEIK
B3: SCT-Ga333 (antibody, V domains shown)
VH: QVQLQQSGAELVRPGTSVKVSCKASGYAFTNYLIEWVKQRPGQGLEWIGVINPGSGGNNYNEKFKGKATLTADKSSSTAYMQLSSLTSDDSAVYFCARRGDKYGSAWFAYWGQGTLVTVSA
VL: DIVMTQSHKFMSTSVGDRVSITCKASQDVSTAVAWYQQKPGQSPKLLIYSASYRYTGVPDRFTGSGSGTDFTFTISSVQAEDLAVYYCQQHYSSPRTFGGGTKLEIK
notes: Murine variable domains
B4: SCT-Ga498 (antibody, V domains shown)
VH: QVQLQQSGAEVKKPGASVKVSCKASGYAFTNYLIEWVKQAPGQGLEWIGVINPGSGGNNYNEKFKGRATITADKSTSTAYMELSSLRSEDTAVYFCARRGDKYGSAWFAYWGQGTTVTVSA
VL: B3 VL with H8Q, K9R, S14T, F73L, S77N, V78M, A80S
B5: SCT-Ga001 (antibody, V domains shown)
VH: QVQLQQSGAELVRPGTSVKVSCKASGYAFTNYLIEWVKQRPGQGLEWIGVINPGSGGSKYNEKFKGKTTLTADKSSSTAYMQLSSLTSEDSAVYFCARTGVYGNFLIFDYWGQGTTLTVSS
VL: DIVLTQSPSSLSVAAGEKVTLSCKSSQSLLNSGIQKNYLAWYQQKPGQPPKLLIYGASTRESGVPDRFTGSGSGTDFTLTISSVQAEDLAVYYCQNDHRYPFTFGGGTKLEIK
notes: Murine variable domains
B6: SCT-Ga255 (antibody, V domains shown)
VH: EVKLVESGGGLVKPGGSLKLSCAASGFAFSSFDMSWVRQTPEKRLEWVAVISSGGSYTFYPDSVKGRFTISRDNARNTLYLQMSSLRSEDTALYFCTRQDYRYPYIMDYWGQGTSVTVSS
VL: DIQMNQSPSSLSASLGDTITITCHASQNINVWLSWYQQKPGNIPKLLIYKASNLHTGVPSRFSGSGSGAGFTLTISSLQPEDIATYYCQQGQSYPWTFGGGTKLEIK
notes: Murine variable domains
B7: SCT-Ga433 (antibody, V domains shown)
VH: DVKLVESGGGLVKPGGSLKLSCSASGFTFSSYTMSWVRQTPEKRLEWVATISSGGSYTYYPDSVKGRFTISRDNAKNTLYLQMSSLKSEDTAMFYCTRWLLSLYAMDYWGQGTSVTVSS
VL: B6 VL with P44S, L54F, A69T, G70N, S93T, W96F
notes: Murine variable domains
B8: SCT-Ga495 (antibody, V domains shown)
VH: B6 VH with K13Q, K19R, T40A, E42G, R44G, A75S, R76K, S84N, S88A, S115L
VL: B2 VL with T93S, F96W
B9: SCT-Ga496 (antibody, V domains shown)
VH: B6 VH with K13Q, K19R, T40A, E42G, R44G, A75S, R76K, S84N, S88A, S115L
VL: B2 VL with A1D, Q24H, T93S, F96W
B10: SCT-Ga485 (antibody, V domains shown)
VH: QVQLVQSGAEVKKPGASVKVSCKASGYAFTNYLIEWVKQAPGQGLEWIGVINPGSGGSKYNEKFKGRATITADKSTSTAYMELSSLRSEDTAVYFCARTGVYGNFLIFDYWGQGTTVTVSS
VL: DIVMTQSPDSLAVSLGERATINCKSSQSLLNSGIQKNYLAWYQQKPGQPPKLLIYGASTRESGVPDRFSGSGSGTDFTLTISSLQAEDVAVYYCQNDHRYPFTFGGGTKLEIK
B11: SCT-Ga249 (antibody, V domains shown)
VH: QVQLQQSGGELMKPGASVKISCKATGYTFSNYWIEWVKQRPGHGLEWIGEILPGSGSSYYNEKFKGRATFTADKSSNTAYMQLSSLTSEDSAVYYCARQKYGNFYYFDFWGQGTTLTVSS
VL: AIQMTQTTSSLSASLGDRVTISCSASQGIGNYLNWYQQKPDGTVKLLIYYTSSLHSGVPSRFSGSGSGTDYSLTISDLEPEDIATYYCHQYSKLPYTFGGGTKLEIK
notes: Murine variable domains

One assay concerns the target TIGIT on the engineered cell lines of the TIGIT/CD155 Blockade Bioassay (J2201, Promega) (UniProt Q495A1). Description: cell-based or functional assay.
The molecule MK-7684 (antibody) showed a Blockade EC50 of 24.8 nM.

The next assay deals with T1, Recombinant human TIGIT. As to the kind of experiment: ELISA, recombinant human TIGIT coated on plate, serially diluted antibody. How it is done: The recombinantly expressed antibodies were used to assess binding activity to TIGIT by conventional ELISA according to the known art. Recombinant human TIGIT was coated onto ELISA plates to detect binding at serially diluted concentrations of the anti-TIGIT antibody preparations (FIG. 1). Anti-TIGIT antibodies' blockade activity was assessed using engineered cell lines, kit reagents (TIGIT/CD155 Blockade Bioassay, J2201, Promega, Madison, Wis.), and a luminometer (Promega, Madison, Wis.) and the results were used to compare against benchmark antibodies with known blockade activity (FIG. 2). Similarly, these antibodies were assessed for their ability to synergize with an anti-PD-1 antibody using a PD-1+TIGIT combination bioassay (Cat. No. J2211 Promega, Madison, Wis.).
For orientation: An ELISA detects its analyte on a solid surface through an enzyme-linked reagent.
Regarding B1, the EC50 turned out to be 1.96 nM.
The same measure, in the same setting: under B2 stands 4.55 nM.
Same read-out and setting: under B3 stands 1.08 nM; under B4, 0.82 nM.
As for B5, the EC50 amounted to 5.03 nM.
For the molecule B6, the EC50 was 0.96 nM.
Take B7: the EC50 came to 1.1 nM.
B8: the EC50 is 0.69 nM.
With B9, the EC50 was found to be 0.67 nM.
Still for that read-out and setting: under B10 stands 0.79 nM; under B11, 1.22 nM.

In the next assay the target is T2, TIGIT on the engineered cell lines of …. Description: cell-based or functional assay.
For the molecule B3, the “Blockade EC50” value stood at 42.2 nM.
On to B5, for which the “Blockade EC50” value came to 26.6 nM.
Regarding B6, the “Blockade EC50” value was 33.4 nM.
Still for that read-out and setting: under B7 stands 25.2 nM; under B11, 28.1 nM.

By EC50 is commonly meant the midpoint of the concentration-response curve.
